Target: spike B1.17 (SARS-CoV-2)

B1: LCB1 protein (designed binder)
chain: DKEWILQKIYEIMRLLDELGHAEASMRVSDLIYEFMKKGDERLLEEAERLLEEVER
Work on B1 yielded a Kd of 270 pM.

From patent US20240408194A1 (ARIZONA BOARD OF REGENTS ON BEHALF OF ARIZONA STATE …, published 2024)
